# B1: human TRIM28 RBCC domain R184D (domain or fragment)
# chain: CGVCRERLRPEREPRLLPCLHSACSACLGPAAPAAANSSGDGGAAGDGTVVDCPVCKQQCFSKDIVENYFMRDSGSKAATDAQDANQCCTSCEDNAPATSYCVECSEPLCETCVEAHQDVKYTKDHTVRSTGPAKSRDGERTVYCNVHKHEPLVLFCESCDTLTCRDCQLNAHKDHQYQFLEDAVRNQRKLLASLVKRLGDKHATLQKSTKEVRSSIRQVSDVQKRVQVDVKMAILQIMKELNKRGRVLVNDAQKVTEGQQERLERQHWTMTKIQKHQEHILRFASWALESDNNTALLLSKKLIYFQLHRAL
# Experiments:
# AUC = target: the molecule itself; experiment: AUC
# [1] = target: B1; experiment: AUC
Binder,stoichiometry N (AUC),stoichiometry N [1]
B1,2,
mouse ZFP568 residues 1-105 containing the first KRAB domain (1K) (domain or fragment) not shown,,2 RBCC chains per 1K (2:1)

# From publication PMC7380489 (NAR Cancer, 2020)
